In US20090104196:

Biological target: AR co-purified in the TAP-LSD1/AR complex (UniProt P10275)
Sequence (P10275 whole entry, one chain of several): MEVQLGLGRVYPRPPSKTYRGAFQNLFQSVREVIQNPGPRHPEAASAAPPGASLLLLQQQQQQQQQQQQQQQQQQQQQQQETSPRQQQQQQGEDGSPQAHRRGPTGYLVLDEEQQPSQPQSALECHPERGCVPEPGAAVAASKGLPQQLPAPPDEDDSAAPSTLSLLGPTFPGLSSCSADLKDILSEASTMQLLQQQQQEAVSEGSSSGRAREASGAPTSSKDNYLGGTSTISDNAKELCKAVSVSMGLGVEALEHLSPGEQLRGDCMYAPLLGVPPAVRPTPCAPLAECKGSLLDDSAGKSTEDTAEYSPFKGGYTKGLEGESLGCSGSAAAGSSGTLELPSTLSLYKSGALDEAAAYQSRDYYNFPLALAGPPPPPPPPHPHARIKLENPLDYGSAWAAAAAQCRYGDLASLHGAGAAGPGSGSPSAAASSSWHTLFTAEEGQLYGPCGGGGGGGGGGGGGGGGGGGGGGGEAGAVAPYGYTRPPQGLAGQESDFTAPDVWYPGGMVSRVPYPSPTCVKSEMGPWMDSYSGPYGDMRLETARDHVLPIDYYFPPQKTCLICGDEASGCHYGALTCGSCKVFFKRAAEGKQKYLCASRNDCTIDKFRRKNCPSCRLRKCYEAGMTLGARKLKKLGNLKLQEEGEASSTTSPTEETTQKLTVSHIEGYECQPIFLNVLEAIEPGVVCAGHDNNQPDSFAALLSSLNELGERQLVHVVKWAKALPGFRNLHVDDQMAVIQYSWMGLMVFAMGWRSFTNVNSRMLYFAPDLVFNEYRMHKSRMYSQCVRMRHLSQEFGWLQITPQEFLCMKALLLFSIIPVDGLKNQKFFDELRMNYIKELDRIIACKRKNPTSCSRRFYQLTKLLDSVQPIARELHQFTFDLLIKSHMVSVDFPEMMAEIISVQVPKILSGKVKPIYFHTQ

TAP-LSD1 (LSD1 with N-terminal TAP tag), tandem affinity purified
demethylation of dimethyl H3-K9 on HeLa nucleosomes in vitro (Western blot): The TAP-LSD1/AR complex demethylated dimethyl H3-K9 in vitro, whereas TAP-LSD1 or the TAP control failed to do so
